The target of assay [1] is T1, human melanocortin-3 receptor (human, UniProt P41968 1-323).
T1 construct: whole, on cells; Membrane preparations of stably expressing cells; also called hMC3R; MC3R
Put plainly: displacement of 0.2 nM 125I-NDP-α-MSH from membranes of cells stably expressing human MC3R, filtration.

The target of assay [2] is T2, human melanocortin-4 receptor (human, UniProt P32245 1-332).
T2 construct: whole, on cells; Membrane preparations of stably expressing cells; also called hMC4R; MC4R
T2 sequence (P32245 whole entry): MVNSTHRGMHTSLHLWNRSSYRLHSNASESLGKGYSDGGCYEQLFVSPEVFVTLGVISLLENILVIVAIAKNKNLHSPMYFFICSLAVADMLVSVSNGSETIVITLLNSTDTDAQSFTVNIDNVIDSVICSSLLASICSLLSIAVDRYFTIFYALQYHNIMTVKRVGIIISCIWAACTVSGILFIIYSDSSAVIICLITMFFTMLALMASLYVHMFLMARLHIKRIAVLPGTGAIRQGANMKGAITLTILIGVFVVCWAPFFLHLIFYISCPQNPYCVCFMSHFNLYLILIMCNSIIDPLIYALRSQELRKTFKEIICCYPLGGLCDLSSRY
In words: displacement of 0.2 nM 125I-NDP-α-MSH from membranes of cells stably expressing human MC4R, filtration.

Assay [3] addresses anti-Myc mAb-HRP conjugate (Invitrogen). Put plainly: competition ELISA: anti-Myc mAb-HRP on coated Myc peptide, 10x diluted c-ART-b sample as competitor.

T1 sequence (P41968 whole entry): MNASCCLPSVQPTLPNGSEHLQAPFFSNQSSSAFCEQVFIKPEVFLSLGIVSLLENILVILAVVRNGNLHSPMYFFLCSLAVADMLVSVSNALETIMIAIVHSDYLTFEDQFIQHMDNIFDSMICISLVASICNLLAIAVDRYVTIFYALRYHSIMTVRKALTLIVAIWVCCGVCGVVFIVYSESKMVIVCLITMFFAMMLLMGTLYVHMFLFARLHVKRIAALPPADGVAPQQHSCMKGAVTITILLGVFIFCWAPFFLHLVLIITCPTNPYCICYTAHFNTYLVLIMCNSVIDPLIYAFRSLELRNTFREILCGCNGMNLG

For the molecule “c-ART-b (from UniProt O00253 1-26; O00253 76-132) (ligand)”, the IC50 was found to be 1.9 nM in assay [1] and 1.4 nM in assay [2]. Also, the absorbance in assay [3] worked out at 0.079.

B1: full-length human ART protein (ligand, UniProt O00253 21-132, looked up, not shown: small tags and cut ends)
chain: AQMGLAPMEGIRRPDQALLPELPGLGLRAPLKKTTAEQAEEDLLQEAQALAEVLDLQDREPRSSRRCVRLHESCLGQQVPCCDPCATCYCRFFNAFCYCRKLGTAMNPCSRT
notes: range 1-132; Recombinant ART as described by Fong et al. 1997 (ART cDNA in pcDNA3.1-Myc-His-A); also called full length ART; full-length ART protein
On to B1, for which the figures for the IC50 in assay [1] and in assay [2] were 1 nM and 0.5 nM, respectively.

(Values after patent EP1040351B1 (Merck & Co., Inc., dated 2007).)
